Assays:
[1] = molecular target: human serum albumin
[2] = molecular target: T1, rabbit serum albumin, P49065
T1 chain: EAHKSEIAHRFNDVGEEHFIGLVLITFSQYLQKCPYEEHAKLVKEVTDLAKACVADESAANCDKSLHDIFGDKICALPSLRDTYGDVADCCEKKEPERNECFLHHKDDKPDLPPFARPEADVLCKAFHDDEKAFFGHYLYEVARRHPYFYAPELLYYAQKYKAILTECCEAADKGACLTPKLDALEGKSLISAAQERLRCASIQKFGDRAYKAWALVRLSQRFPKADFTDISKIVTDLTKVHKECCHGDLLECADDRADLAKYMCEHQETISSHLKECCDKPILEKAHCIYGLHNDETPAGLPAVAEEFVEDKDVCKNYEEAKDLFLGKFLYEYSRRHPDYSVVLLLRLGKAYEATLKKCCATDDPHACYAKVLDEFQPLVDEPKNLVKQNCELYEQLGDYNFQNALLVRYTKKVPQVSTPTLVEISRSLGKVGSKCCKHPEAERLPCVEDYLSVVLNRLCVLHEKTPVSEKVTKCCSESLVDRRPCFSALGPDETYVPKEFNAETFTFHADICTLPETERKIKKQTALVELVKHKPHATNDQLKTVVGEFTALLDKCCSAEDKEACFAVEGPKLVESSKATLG

B1: PlySs2 (CF-301) lysin (protein)
chain: MTTVNEALNNVRAQVGSGVSVGNGECYALASWYERMISPDATVGLGAGVGWVSGAIGDTISAKNIGSSYNWQANGWTVSTSGPFKAGQIVTLGATPGNPYGHVVIVEAVDGDRLTILEQNYGGKRYPVRNYYSAASYRQQVVHYITPPGTVAQSAPNLAGSRSYRETGTMTVTVDALNVRRAPNTSGEIVAVYKRGESFDYDTVIIDVNGYVWVSYIGGSGKRNYVATGATKDGKRFGNAWGTFK
- Fold decrease in CF-301 MIC compared to media alone (delipidated human serum + Oleate 0.625 mg/mL) [1]: 8 fold
- Fold decrease in CF-301 MIC compared to media alone (delipidated human serum + Palmitate 0.625 mg/mL) [1]: 16 fold
- Fold decrease in CF-301 MIC compared to media alone (delipidated human serum + Palmitate + Oleate) [1]: 16 fold
- Fold decrease in MIC (50% MHB/50% heat-inactivated human serum supplemented with HSA, 40 mg/mL) [1]: 4 fold
- Fold decrease in MIC (MHB supplemented with HSA, 40 mg/mL) [1]: 8 fold
- Fold increase in CF-301 specific activity with rHSA, 4% [1]: 17.8 fold
- Specific Activity (Units/mg) of CF-301 in the lytic assay with rHSA, 4% [1]: 43100 Units/mg
- ΣFICavg (checkerboard, S. aureus, heat-inactivated human serum); HSA fraction V [1]: ≤0.086
- ΣFICavg (checkerboard, S. aureus, heat-inactivated human serum); HSA recombinant [1]: ≤0.1
- Fold decrease in MIC (50% MHB/50% heat-inactivated human serum supplemented with RabSA, 40 mg/mL) [2]: 4 fold
- Fold decrease in MIC (MHB supplemented with RabSA, 40 mg/mL) [2]: 8 fold
- ΣFICavg (checkerboard, S. aureus, heat-inactivated human serum); rabbit serum albumin from serum [2]: ≤0.1

Reference: patent US20220023399
